What was measured:
[1] = test system: growth of ABP1 SH3-swapped strains in hygromycin B; conditions: cited from earlier work
Text: Having determined that multiple PPIs require SH3s, we asked whether the latter establish PPI specificity independently from their host proteins by swapping domains (Fig. 2A). Using the second round of genome editing, we individually replaced Abp1 SH3 with the 27 yeast SH3s and 3 human Abp1 orthologs’ SH3s (CTTN, HCLS1, and DBNL, Fig. 2B). The reintroduction of its own SH3 (Abp1SH3 in Abp1) reconstitutes almost perfectly Abp1’s interaction profile (Kendall’s τ = 0.93, Fig. 2B).

Hua2 = assay: Low-throughput liquid DHFR-PCA of selected Abp1 SH3 mutants (Fig. S3F); assay type: cell-based, Saccharomyces cerevisiae; conditions: average
Procedure: Liquid DHFR-PCA low-throughput experiments were performed to validate the PPIs identified as affected by the SH3 domain deletions in the high-throughput solid DHFR-PCA screen (256 PPIs weaker or lost and 116 PPIs stronger or gained following domain deletions). Mating and the diploid selection were performed as described for the large-scale experiment, with the exception that the plates were in 384 formats. Following the second diploid selection, diploid cells were inoculated in a 96 v-shaped well plate using a robotically manipulated 96 pin tool in a synthetic complete medium with MSG at pH 6.0 with NAT and HPH. After 48 h of growth, optical density (OD) was read using a TECAN Infinite F200 Pro, and dilutions to 1 OD in sterile nanopure water were prepared. Cells were then diluted to 0.1 OD by combining 25 µl of cell suspension at OD = 1 and 225 µl of PCA selection media without agar in a 96-wells plate. Plates were incubated at 30 °C in a TECAN Infinite M Nano and OD was monitored each 15 min for 72 h. […]
Selected non-conserved positions (E6 , E13, N15 and N27) sensitivities to mutations for the Abp1-Hua2 PPI were tested in a low -throughput liquid DHFR -PCA assay. The growth of the mutants in the low -throughput experiment (average of four replicates of the total OD for each growth curve, y axis ) is compared to the mutants DMS score (x axis). […]

Abp1 (1xFLAG) = assay: Western blot expression level of Abp1 SH3 mutants (Fig. S3C-D); assay type: cell-based, Saccharomyces cerevisiae
Procedure: Precultures of yeast cells expressing baits fused with the DHFR F[1,2]-FLAG were grown overnight at 30 °C with agitation in synthetic complete medium. The next day, cells were expanded in synthetic complete medium to reach their exponential phase (OD600 of around 1.0), pelleted, and frozen at −80 °C. The equivalent of fifty OD600 of cells was resuspended in ice-cold yeast lysis buffer (10 mM Tris-HCl pH 7.4, 150 mM NaCl, 0.5 mM EDTA (Millipore Sigma), 1% Triton X-100 (Millipore Sigma), and one cOmplete Mini Protease Inhibitor Cocktail (Millipore Sigma) per 10 mL) with […] glass beads (Millipore Sigma) and disrupted at 4 °C by 10 cycles of 2 min vortexing and 2 min cooldown. The equivalent of […] of lysed cells was used for the immunoprecipitation of the bait proteins using FLAG-M2 agarose beads (Millipore Sigma). The beads were incubated with the cell lysates for 120 min at 4 °C with a slow rotation, followed by three washes with the yeast lysis buffer.
Protein extracts and affinity-purified baits from yeast and human lysed cells were migrated on 10% polyacrylamide gels. The separated proteins were then transferred to nitrocellulose membranes. Validation of correct protein loading was done with ponceau staining of the membranes. Before the primary antibody incubations, membranes were blocked in 5% milk. Protein signals were detected on an Amersham Imager 600RGB (GE Healthcare) following the incubation of the membranes with the appropriate HRP-conjugated secondary antibodies and the Clarity Western ECL Substrate (Bio-Rad). The antibodies used in this study are M2-HRP (A8592, Sigma, 1/50,000), rabbit anti-FLAG (F7425, Sigma, 1/1000), PAK (SC-881, Santa Cruz, 1/200), p130cas/BCAR1 (SC-860, Santa Cruz, 1/200), actin (Cell Signaling Technology, 1/2000), anti-mouse HRP (Cell Signaling Technology, 1/10,000) and anti-rabbit HRP (Cell Signaling Technology, 1/10,000). The quantification of the WB signals was performed with the Amersham Imager 600 analysis software (GE Healthcare). […]
C, WB comparing expression levels of selected Abp1 SH3 mutants with WT Abp1. An asterisk represents a stop codon, which inhibits translation of the 1xFLAG epitope. D, Quantification of the relative level of expression of Abp1 SH3 mutants by WB as in C, (log2 of Abp1 SH3 mutant/Abp1 WT ratio, WB relative level of expression of 0 for WT Abp1) compared to their DMS scores (Hua2 (left): Pearson’s r = -0.34, p-value = 0.46, Lsb3 […]
(right): Pearson’s r = -0.81, p-value = 0.03). […]
Most […]
interface residues sensitive to mutations, such as Y7, E13, E16, V3 1, D32, D34, L48 and Y53, specifically affect Hua2 PPI. See also Supplementary Table 4.

ABP1 = assay: DHFR-PCA on solid medium, bait ABP1 (Fig. 1B); assay type: cell-based, Saccharomyces cerevisiae; conditions: bait ABP1, label = prey; 2-4 replicates
Text: (§1) Supplement 41467_2021_21873_MOESM8_ESM.xlsx, sheet "Fig1B" | column: medsize; medrep; Ratio; Score

BBC1 = assay: DHFR-PCA on solid medium, bait BBC1 (Fig. 1B); assay type: cell-based, Saccharomyces cerevisiae; conditions: bait BBC1, label = prey
Text: as §1

B1: ABP1: yeast SH3-containing protein; SH3-deleted (D) or gene-deleted (KO) strain (protein, UniProt P15891 2-592, looked up)
Actin-binding protein: ALEPIDYTTHSREIDAEYLKIVRGSDPDTTWLIISPNAKKEYEPESTGSSFHDFLQLFDETKVQYGLARVSPPGSDVEKIIIIGWCPDSAPLKTRASFAANFAAVANNLFKGYHVQVTARDEDDLDENELLMKISNAAGARYSIQTSSKQQGKASTPPVKKSFTPSKSPAPVSKKEPVKTPSPAPAAKISSRVNDNNDDDDWNEPELKERDFDQAPLKPNQSSYKPIGKIDLQKVIAEEKAKEDPRLVQKPTAAGSKIDPSSDIANLKNESKLKRDSEFNSFLGTTKPPSMTESSLKNDDDKVIKGFRNEKSPAQLWAERKAKQNSGNAETKAEAPKPEVPEDEPEGEPDVKDLKSKFEGLAASEKEEEEMENKFAPPPKKSEPTIISPKPFSKPQEPVKAEEAEQPKTDYKKIGNPLPGMHIEADNEEEPEENDDDWDDDEDEAAQPPLPSRNVASGAPVQKEEPEQEEIAPSLPSRNSIPAPKQEEAPEQAPEEEIEEEAEEAAPQLPSRSSAAPPPPPRRATPEKKPKENPWATAEYDYDAAEDNELTFVENDKIINIEFVDDDWWLGELEKDGSKGLFPSNYVSLGN
Hygromycin phenotype, literature [1]: hygromycin resistance

B2: WT (protein, UniProt P15891 2-592, looked up)
Actin-binding protein: ALEPIDYTTHSREIDAEYLKIVRGSDPDTTWLIISPNAKKEYEPESTGSSFHDFLQLFDETKVQYGLARVSPPGSDVEKIIIIGWCPDSAPLKTRASFAANFAAVANNLFKGYHVQVTARDEDDLDENELLMKISNAAGARYSIQTSSKQQGKASTPPVKKSFTPSKSPAPVSKKEPVKTPSPAPAAKISSRVNDNNDDDDWNEPELKERDFDQAPLKPNQSSYKPIGKIDLQKVIAEEKAKEDPRLVQKPTAAGSKIDPSSDIANLKNESKLKRDSEFNSFLGTTKPPSMTESSLKNDDDKVIKGFRNEKSPAQLWAERKAKQNSGNAETKAEAPKPEVPEDEPEGEPDVKDLKSKFEGLAASEKEEEEMENKFAPPPKKSEPTIISPKPFSKPQEPVKAEEAEQPKTDYKKIGNPLPGMHIEADNEEEPEENDDDWDDDEDEAAQPPLPSRNVASGAPVQKEEPEQEEIAPSLPSRNSIPAPKQEEAPEQAPEEEIEEEAEEAAPQLPSRSSAAPPPPPRRATPEKKPKENPWATAEYDYDAAEDNELTFVENDKIINIEFVDDDWWLGELEKDGSKGLFPSNYVSLGN
ave_au (DMS validation) (Hua2): 93.0274 au | Ratio Mutant/WT Flag (Abp1 (1xFLAG); Western blot Flag signal of mutant relative to WT): 1 | Flag (2 bands) (Abp1 (1xFLAG); Western blot, Flag signal, 2 bands): 36554

B3: YBL039C (protein, UniProt P28274 1-579, looked up)
CTP synthase 1: MKYVVVSGGVISGIGKGVLASSTGMLMKTLGLKVTSIKIDPYMNIDAGTMSPLEHGECFVLDDGGETDLDLGNYERYLGVTLTKDHNITTGKIYSHVIAKERKGDYLGKTVQIVPHLTNAIQDWIERVAKIPVDDTGMEPDVCIIELGGTVGDIESAPFVEALRQFQFKVGKENFALIHVSLVPVIHGEQKTKPTQAAIKGLRSLGLVPDMIACRCSETLDKPTIDKIAMFCHVGPEQVVNVHDVNSTYHVPLLLLEQKMIDYLHARLKLDEISLTEEEKQRGLELLSKWKATTGNFDESMETVKIALVGKYTNLKDSYLSVIKALEHSSMKCRRKLDIKWVEATDLEPEAQESNKTKFHEAWNMVSTADGILIPGGFGVRGTEGMVLAARWARENHIPFLGVCLGLQIATIEFTRSVLGRKDSHSAEFYPDIDEKNHVVVFMPEIDKETMGGSMRLGLRPTFFQNETEWSQIKKLYGDVSEVHERHRHRYEINPKMVDELENNGLIFVGKDDTGKRCEILELKNHPYYIATQYHPEYTSKVLDPSKPFLGLVAASAGILQDVIEGKYDLEAGENKFNF
medrep (log2 median colony size normalized to plate background, PCA score) (ABP1): 3.877 | medrep (log2 median colony size normalized to plate background, PCA score) (BBC1; 2-4 replicates): 2.387 | Ratio (SH3-deleted/WT medrep) (BBC1; only significant differences showed, PPIs completely lost have a ratio of 0.1 and the gained PPIs 2.5): 0.1

— PMC7954794, “Protein context shapes the specificity of SH3 domain-mediated interactions in vivo” (Nature Communications, 2021)
